Assay results as given in the nanobody polyreactivity screen of Harvey et al. (2022).

Assay: yeast display, Sf9 membrane polyspecificity reagent, FACS + sequencing; frameworks hold sequencing errors
Summary of the method: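 Using colony PCR, genes from sorted yeast display clones were amplified, then sequenced on MiSeq at 2 × 250 and filtered by CDR length. The clones had been stained with 10% biotinylated, detergent-solubilized Sf9 membrane reagent for 1 hour at 4 °C and sorted by FACS into low and high (top ~1%) gates on anti-HA and streptavidin fluorescence. Polyreactivity labels come from the gate of origin.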

Sequence	polyreactivity (PSR sort gate)
QVQLVESGGGLVQAGGILRLSCAASGITFGGYAMAWYRQAPGKERELVAAISRGGGSTNYADSVKGRFTISRDNAKNTVYLQINSLKPEDTAVYYCNARRQNSRYDYWGQGTQVTVSS	low polyreactivity
QVQLVESGGGLVQAGGILRLSCAASGLIFNYYAMGWYRQAPGKERELVADITRGGSTNYADSVKGRFTISRDNANFTVYVQMNSMKPEDSAVYYCAARVRGWWYRYDYWGHGTQVTVSS	high polyreactivity
QVQLVESGGGLVQAGGILRLSCAASGLTFAKNAMGWYRQAPGKERELVAAITTGGSTYYADSVKGRFTISRDNAKNTVYLQMNSLKPEDTAVYYCAAQILVRHIPYYFWGQGSQVTVSS	high polyreactivity
QVQLVESGGGLVQAGGILRLSCAASGLTFYGYAMGWYRQAPGKERELVAAITRGGGSTYYADSVKGRFTISRDNAKNTVYLQMNSLKPDDTAVYYCAADQTGWGDTYYYWGQGTQVTVSS	low polyreactivity
QVQLVESGGGLVQAGGILRLSCAASGRIFTSNPMGWYRQAPGKEREFVAAISGSGDGTYYADSVKGRFTISRDTAKNTVYLQMNSLKPEDTAVYYCAARRRGTYPYPMGYWGQGTQVTVSS	high polyreactivity
QVQLVESGGGLVQAGGILRLSCAASGRIFVFYFMGWYRQAPGKERELVAAITRTGGSTYYADSVKGRFTISRDNAKNTVYLQMNSLKPEDTAFYYCATRYTRFRHFDYWGQGSQVTVSS	low polyreactivity
QVQLVESGGGLVQAGGILRLSCAASGRTFAYNTMGWYRQAPGKERQLVAAISSDGSTNYADSVKGRFTISRDNAKNTVYLQMNSLKPEDTAVYYCAKGEGTGTSDTQVYEHDYWGQGTQVTVSS	low polyreactivity
QVQLVESGGGLVQAGGILRLSCAASGRTFGRNAMGWYRQAQGKERELVAGISIGGGTTYYADSVKGRFTISRDNAKNTVYLQMNSLKPEDTAVYYCAARSWSYLHRYGYWGQGTLVTVSS	high polyreactivity
QVQLVESGGGLVQAGGILRLSCAASGRTFTPYALGWYRQAAGKERDLVAAISSRGGSTYYADSVKGRFTISRDYAKNTVDLQMNSLKPEDTAVYYCNATQYPAADRYTNNYGGGFDYWGQGTQVTVSS	low polyreactivity
QVQLVESGGGLVQAGGILRLSCAASGSIFRPYAMGWYRQAPGKERELVAAIRWSTRNTYYADSVKGRFTISRDNAKNTVYLQMNSLKPEDTAVYYCAAAYWPVVWFYYWGQGTQVTVSS	low polyreactivity
QVQLVESGGGLVQAGGILRLSCAASGSIFYAYDKGWYRQAPGKERELVAGISSSDSTYYADSVKGRFTISRDNAKNTVYLQLNSLKPEDTAVYYCAADPVFAAAYIHLYGIYDTWGQGTQVTVSS	low polyreactivity
QVQLVESGGGLVQAGGILRLSCAASGSILDLNAMGWYRQAPGKERELFAAISYSGDSTYYADSVKGRFTISRDNAKNTVYLQMNSLKPEDTAVYEGAAEVYGAVYDYWGQGTQVTVAS	low polyreactivity
QVQLVESGGGLVQAGGILRLSCAASGSTFAGYAMGWYRQAPGKERELVATITYSGASTYYADSVKGRFTISRDNAKITVYLQMNSLKPEDTAVYYCGKKASYWWGYEYWGQGTQVTVSS	low polyreactivity
QVQLVESGGGLVQAGGILRLSCAASGSTFGFNAMGWYRQAPGKERELVASITSGDSTYYADSVKGRFTISRDNAKNTVYLQMNSLKPEDTAVYYCAKVGGGGQAGDNPILSDYWGQGTQVTVSS	low polyreactivity
QVQLVESGGGLVQAGGILRLSCAASGSTFRLNAMVWYRQEPGKERELVASIRWSVGITYYADSVKGRFTISLDNSKNTFYLQMNSLKPEDTAVYYCANGDTNWRYYYWGQGTQVTVSS	high polyreactivity
QVQLVESGGGLVQAGGILRLSCAASGSTFSPYAMGWYRQAPGKERELVANITISGGSTYYADSVKGRFTISRDNAKNTVYLQMNSLKAEDTAVYYCNADSLIRWLFTVVIFDYWGQGTQVTVSS	low polyreactivity
QVQLVESGGGLVQAGGILRLSCAASGSTFSSNAMGWYRQAPGKERELVAAISVNGGSTNYADSVKVRFTISRDNAKNTVYLQMNSLKPEDTAVYYCAAEPAKVAFYRGDYWGQGTEVTVSS	low polyreactivity
QVQLVESGGGLVQAGGILRLSCAASGSTFTSYAMGWYRQAPGKERELVAAISKSGGSTYYADSVKGRFTISRDNAKNTVYLQMNSLKPEDTALYYCAARYNVRSYSTSRFYYWGQGTLVTVSS	low polyreactivity
QVQLVESGGGLVQAGGILRLSCAASGSTFYGYAMGWYRQAPGKERELVAAITRSGGSTYYADSVKGRFTISRDNAKNTVYLQMNSLKPEDTEVYYCNKYGYKGGVGYDYWGQGTQVTVSS	high polyreactivity
QVQLVESGGGLVQAGGILRLSCAPSGRIISWNPIGLYRQAPGQERELVADITYSGGSTYYADSVKGRFTISRDNAKNTVYLQMNSLKPEDTAVYDCNADPRWYHFEYGYWGQGTQVTVSS	high polyreactivity

Sequence	polyreactivity (PSR sort gate)
QVQLVESGGGLVQAGGILRLSCAPSGSTFRANAMGWYRQAPGKERELVAAITSGGSTNYADSVKGRFTISRDNAKNTVYLQRNSLKPEDTAVYYCADESYQEHSFYVYYGYDYWGQGTQVTVSS	low polyreactivity
QVQLVESGGGLVQAGGILRLSCASSGFTFSLYDMGWYRQAPRKDRELVADINGSGGSTYYADSVKGRFTISRDNAKNTVYLQLNILKPEDTAVYYCAAGPPSRWWYIVDYGYWGQGTQVTVSS	high polyreactivity
QVQLVESGGGLVQAGGILRLSCGASGIIFDGYAMGWSRQAPGKERELVAAIDGTGDSTYYADSVKGRFTISRDNAKNTVYLQMNSLKPEDTAVYYCGAEYDYRWWYGYDYWGQGTQVTVSW	high polyreactivity
QVQLVESGGGLVQAGGILRLSCPASGRTFVNYAMGWYRQQPGKESELVAAITSRGGSTYYADSVKGRFTISRDNAKNSVFLQMNSLKPEDTAFYYCAAGEYYYWGQGTQVTVSS	high polyreactivity
QVQLVESGGGLVQAGGILRLSSAASGSIFSNYAMGWYRQAPGKERELVAAINRSGGSTYYADSVKGRFTISRDNAKNTVYLQITSLKPDDTAVYYCNAVRLYYCAGGQFQYHFWGQGTQVTVSS	high polyreactivity
QVQLVESGGGLVQAGGILRLSSAASGSTFFNYAMGWYRQAPGKERELVAAISSSGGRTYYADSVKGRFTISRDNAKNTVYLQMNSLKPEDTSVYYCAASGRKHGMNYWGQGTQVTVSS	high polyreactivity
QVQLVESGGGLVQAGGILRVSCAASGYTFLGYAMGWYRQPPGKEMELVAVISRTGGRTYYADSVKGRFTISRDNAKNTVYLQMNSLKPEDTAVYYCATEDYRGPEYDYWGQGTQVNVSS	high polyreactivity
QVQLVESGGGLVQAGGILSLSCAASGSTFPYNAMGWYRQAPGIERQLVAAISSGGSTYYADSVKGRFTNSRDNAKNTVYLMMNRLKPEDTAVYYCAASWGKYIRSWGYGYWGQGTLVTVSS	high polyreactivity
QVQLVESGGGLVQAGGILSLSCAASGSTLNSYAMGWNRPAPGKERELVAAIRWSGSSTYYADSVKGRFTISRDNAKNSVFLQMNSLKPQDTAVYYCAKGYSYGRPWDIYYYCGQGTQVTVSS	low polyreactivity
QVQLVESGGGLVQAGGMRRLSCAASGRTFGQYVMGWSRQAPGKERELVAAISRRGGSTYYADSVKGRFTISRDNAKNTVYLQMNSLKPEDTAVYYCAPAGTYTGGEGYLGQGTQVTVSS	high polyreactivity
QVQLVESGGGLVQAGGRHRLICAATGITYKSNPMGWYIQAPGTETELVAAIARRASSTYYADSVKGRFTISRDNAKNTVYLHMNSLNPEDTAVYYCNAVLPVYRTNLDYWGQGTQVTVSS	high polyreactivity
QVQLVESGGGLVQAGGRHRLTCAASGYTFDWYTMGWYRQAPGTERELVAAISASGVRTYYADSVKGRFTISSDNAKNSVYLQMNSLKPEDTAVYYCYRVYSTSRITEYEFDYWGQGTQVTVSS	low polyreactivity
QVQLVESGGGLVQAGGRLLLSCAASGSTFTHYAMGWYRQAPGKERELVPAISWGAGSTYYADSVKGRFTNSRDNAKNTVYLQMNSLKPEDTAVYYCAAYLYRYGHKYYSWGQGTQVTVSS	high polyreactivity
QVQLVESGGGLVQAGGRLPLSCAASGFIFGDYTMGWYRQAPGKERELVASISRRGGSTTYADSVKGRFTISRDNAMNTVYLQMNSLKPEDTAVYYCAARSRPSGSYNRHGPVDYWGQGTQVTVSS	high polyreactivity
QVQLVESGGGLVQAGGRLRISCAASGFTFDLYAMGWYRQAPGKERELVAAISWSGGSTRYADSVKGRFTISRDNAKNTVYLQMNSLKPEDTAVSYCARQPRLYFKGKLYGYWGQGTQVTVSS	high polyreactivity
QVQLVESGGGLVQAGGRLRISCAASGSIFYLYARGWYRQAPGKERELVPVITGSGGSTYYADSVKGRFTISRDNSKYTVYLQMNSLKPVDTAVYYGAADYYWGYDWGQGTQVTVSS	low polyreactivity
QVQLVESGGGLVQAGGRLRISCAASGSTFLDNAMGWYRQAPGKERELVASITSSGGNTYYADSVKGRFTISRDNAKNTVYLQMNRLKPEDTAVYYCAADAASYWGSNSANYDYDYWGQGTQVTVSS	low polyreactivity
QVQLVESGGGLVQAGGRLRISCAASVRIFGVNAMGWYRQAPGKERELVAVISSGGSTYYADSVKGRFTISRDNAKNTVYLQMNSLNPEDTAVYSCYAVVGRWFPYNLSDYWGQGTQVTVSS	low polyreactivity
QVQLVESGGGLVQAGGRLRLGCAASGSTYLYNAMGLYRQAPGKERELVAAISWTGGSTYYADSVKARYTISRDNAKNTVYLQMNSLKPEDTAVYYCNSLSVPDYDYWGHGTQVTVSS	high polyreactivity
QVQLVESGGGLVQAGGRLRLICAASARTLDRNAIGWYRQAPGEEREFVAAISSSGDSTYADSVKGRFTISRDNAKNTVYLQMNSLKPEDTAVYYCNAEEKVTYSASYFWVYDAMDHWGQGTQVTVSS	low polyreactivity
